The supplement of paper PMC12764529
± gives the half width of the 95% confidence interval.

experiment: folding stability dG unfold (combined trypsin and chymotrypsin); higher = more stable
In short: (§1)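 Sequencing followed digestion of designed mini-proteins with trypsin and chymotrypsin, each at 11 concentrations in threefold dilutions together with a no-protease condition. The mini-proteins were under 80 residues, had no cysteine, sat in a PA-tagged cDNA display construct, and were kept only if AlphaFold2 dimer inter-PAE was above 15. From the counts, Bayesian fitting gave K50, and unfolding free energy was derived against a sequence-predicted unfolded-state K50 and a shared folded-state K50, per protease or combined.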

Sequence | folding stability dG unfold
SAGGKYKIEIEITEIKEKEDGTKEITIKIKIYDEETGELIYTITVKMRIDKKTNKIIIEEVKIEKLPPSAGG [r13_596_TrROS_Hall] | > 6 kcal/mol
SAGGSAGGSAGGKIKPGQTVIFIELKITKQRDGPDGKRYMEFEIERIDIFRIPPGDNILSAGGSAGGSAGGS [r10_826_TrROS] | 3.03 ± 0.13 kcal/mol
SAGGSTTVTIETYESEKFPNGSFKTSTKKIVITNTLSPDEELTLPNGKKIPASLSAEEIAEAILKSESAGGS [r16_440_JUSTAS] | 0.151 ± 0.098 kcal/mol
SMEEIAKEIAEKAGVNWENVEFKVEEKEDPETGEKYLIAHVVIKLPNEKYIAVIDLRDKKILEIWKLEDISA [r9_1219_TrMRF] | 3.61 ± 0.11 kcal/mol
SAGDDLKIKKVEIQINPEHGYISVTFRIDGYEVQIMYDVDPKNGPITMDIYYPGKPIGEFTIPLNDIKISAG [r5_415_TrROS] | 2.68 ± 0.1 kcal/mol
SAGGSAGGSAGGPLKEAVEAAVASGAPEAEYLLVTPEGELRVTVKVYPEEGKVEVEVSPLSAGGSAGGSAGG [r17_475_TrMRF] | 0.555 ± 0.037 kcal/mol
SAGGSAGGSAMKTIPVKTKEEAEKLAEELKASGYGEVKKTKSGNIIVKAPDGIDVKIVVPEKSAGGSAGGSA [r18_126_JUSTAS] | 0.574 ± 0.19 kcal/mol
SAPLEQLLEFAEEFAQAYGYRVEIEVYRNGEPKGTYEIPMPKPGQPPVSIMIRIPDPNLYIHVTIYMPRSAG [r14_728_TrROS] | 2.75 ± 0.11 kcal/mol
SASPELRKLAEEAAERLVKELGVEKLEFTFTAPVLRPVYTYDPGGNKTPRLEEEIVTYSVTAVVPPEAASAG [r14_232_TrMRF] | -0.0957 ± 0.2 kcal/mol
TWTFTIMIPIKPEIREALDSGKPLPIEELVDWIKDEIARMFGFKDVTVKGIEIHPDPNGEIMVMVTIEFKPS [r1_290_TrROS] | 4.62 ± 0.12 kcal/mol
SAGGSAGGWIEIDPETGTIEIWMPPNDIEPLVDEIAEELGWKVKVKVEPNPEGWVRHTITIPPKSAGGSAGG [r6_419_TrROS] | 0.39 ± 0.23 kcal/mol
SAGGIVVGEEGVVRITGPGEPVIIPLPENSEVVEIDVPDDGYVRITLRVDGKTVTVDFPSAPPGLTLSAGGS [r16_635_TrMRF] | 0.927 ± 0.051 kcal/mol
SAGGSMTTITLTLEFELDENGEVDPEKIEAEAEKIKEENPEIKELTVEVKRDPNSNKITVTVTAKVPSAGGS [r8_258_JUSTAS] | 3.06 ± 0.18 kcal/mol
SAPQIVEVKEYDPVSKTYTILAETPEGPLTVPVPAGGDTTVEEAIEQVKEYFEKTLPPGVELEIEKILLSAG [r14_422_JUSTAS] | 0.418 ± 0.093 kcal/mol
SAGGSAGGSAMEIEIEIEIPVPVPGGVPSPENPEVAEERAEEIKEKYAKEGLKVKVKITVVSAGGSAGGSAG [r3_258_JUSTAS] | 1.07 ± 0.3 kcal/mol
SAGKIKIEVEYLDPNGDWRRYEHTIPFKPNQSFEEAINELLPPGLREIKITEVDPEEGTIKIDIWIRPDSAG [r5_227_TrROS] | 2.41 ± 0.19 kcal/mol
SAGGSAGGSAGGWYRIEIEFGNKPREYVVPGAPPDEAADMLQDPGIKNVKVEPLPPEQLKSAGGSAGGSAGG [r7_502_TrROS] | 0.174 ± 0.25 kcal/mol
SAGGSASSYGIEIEFSEDPNSKTKKITITVTRPDGTVETVTITNPDITDEEAKKIGEELANEVANSSAGGSA [r15_526_JUSTAS] | 2.06 ± 0.059 kcal/mol
SAGFEARVLEVVDLGDRRVALFELRDPEEGRYLLAVAVYDPETGLARVELWDPTDGRLVATPVVPVLPLSAG [r5_440_TrMRF] | 2.12 ± 0.066 kcal/mol
SAKKIKIKEITITVEKNKDGSYTITITVDGKKIAELTFKTPEEAEKAAEELAKELAKKLNVDKIEIKPTSAG [r14_791_TrROS_Hall] | 2.09 ± 0.22 kcal/mol
SAGGSPIIRVKVTYYPPDGSVTVYLPADSVDELIDALNSVPDIPVTPTDGDTIIASTPDAIVEITVESSAGG [r13_143_TrMRF] | 0.717 ± 0.097 kcal/mol

experiment: folding stability dG unfold from chymotrypsin proteolysis; higher = more stable
In short: as §1

Sequence | folding stability dG unfold
SAGSEEEKKAIAEELKEKILKERPELQKKEYTVEVEITPLPDDSIRITVTVTLPSGETETREYVYPNKSAGG [r19_194_JUSTAS] | 2.95 ± 0.21 kcal/mol
SAGGSAGGSAPTSSVVTFPYESPEEARERARELAEEERARRGVRFRVEYDPATGTVTLTAVESAGGSAGGSA [r18_368_JUSTAS] | 0.926 ± 0.12 kcal/mol
SAGGSAGGSMTVERNVTSEEEAEEWREEIEKELGVKVEEVIREETEEGDLRVKFVIEIPEDLKSAGGSAGGS [r12_577_JUSTAS] | -0.367 ± 0.2 kcal/mol
SAGGSAGGSAGMKVELSVAPDPATGEPVLLFHFEDFTLALNPNTGAIGVYLKDEVELFELSAGGSAGGSAGG [r17_544_TrMRF] | 1.98 ± 0.1 kcal/mol
SAGGSAGGSAGGSTKTYNAEIDNPNGPKITIPIEYRNEDGESDFEEKAKKFAEEYAKKYSAGGSAGGSAGGS [r4_168_TrMRF] | 0.906 ± 0.16 kcal/mol
SAGEKKKVVIVVHIHIEAESEEDREKALEEARKLAEELARELKEKLGLPEDVKEVVVIVHIHPRSEEEKSAG [r5_436_TrROS_Hall] | 2.42 ± 0.083 kcal/mol
SAGGSAGGSIVFRSPEQAKEWLDNFPPGNEVNIHVQGPDTGQPQEFEIKIPPPKPEYDPDGKPSAGGSAGGS [r12_393_TrROS] | -0.773 ± 0.54 kcal/mol
SAGKVKATYDPKTGTLTITFNVKKNEKINVKANIKIPEYNATVEKVETNGAKKDNEPVTVKIKLKNLKKSAG [r5_737_TrMRF] | 2.75 ± 0.12 kcal/mol
SAGGSMIELTLTSTVPDGTPASTVPPEVAREQALAYAEAQGLTVVEIRVEFDPEAGTITIPVVTALSAGGSA [r2_237_JUSTAS] | 0.679 ± 0.13 kcal/mol
SAGGMIIIEGMSEEEIKNLIKEAIKKGEKVKKIVIRVNGKLYLITVDAKTKKITVEEIPLEELKKKKSAGGS [r16_481_TrROS_Hall] | 1.85 ± 0.067 kcal/mol
SATETLTVVETRTVRDPAVPGTTTTETRVTEVTRPAPPPPPLSAEELARALAEAGLLERTDDGELKVVLSAG [r14_582_TrROS_Hall] | -0.276 ± 0.11 kcal/mol
SAGGSAGGSKKAEELAKKLGLEVEIVKVEKKKDGSEVVIVKIKNKDGSELTLVVKDGKVELFPSAGGSAGGS [r12_279_TrROS_Hall] | 2.44 ± 0.073 kcal/mol
SAMVSVTELPDGGVLATFPLPDGHPATAVFDPADLKPSVAYFPNGLRAVLRVTPDGRVELLAVEDVPPASAG [r14_877_TrMRF] | 0.963 ± 0.1 kcal/mol
SAGGSARWFLIRIEFVFGGEPRTFSVLIDVDPGEIEIEIPPELQKKGFQIKDIEIWPLPPEDLKKLSAGGSA [r15_853_TrROS] | 3.18 ± 0.11 kcal/mol
SAGGSAVPAEAKKKVFLKPVKVNIPLPGNYEIVEIDPKTGKIVIKVPGSSKTLVVDLKSGKVYEFGSAGGSA [r15_452_TrMRF] | 1.78 ± 0.085 kcal/mol
SAGGSAGGSTVTIEIPGFKTPEEIAKAIAEKTGKKVKEVKVEKDKKNKTYTITVTVDGKEITFSAGGSAGGS [r12_935_TrROS_Hall] | 1.03 ± 0.087 kcal/mol
SAGGSAGGSDIPIEIVDVEHTDNMISVIIKGPDGNYFVINFQFNPGNGKFNVNISIIPPEDLKSAGGSAGGS [r20_70_TrROS] | 3.95 ± 0.26 kcal/mol
SAGKKLFIKVKIRVKKKVKLKDGKTVEKEKELTLLIEAESEEEALEAAKKLAEELGLEIEKVEIFKAPSAGG [r19_176_TrROS_Hall] | 3.75 ± 0.16 kcal/mol
SAGGSAGGSAGGGKSITKVYTLPNGGKAVAVYNPETGKVEVYFFKPNGKLLEKKTFKAKSAGGSAGGSAGGS [r10_1044_TrMRF] | 2.84 ± 0.07 kcal/mol
SAGGSAGGSAMIVTEEGNTITITTLTNLTFPTTGATSTATTTTTITLPPTPLFPVPRTDNSLSAGGSAGGSA [r18_501_JUSTAS] | 0.819 ± 0.12 kcal/mol
SAMYVRITVTFETPDGTRTVTIEIPPSEVEAGKPLSEEELKALAEEIAAKDPNATITEITIERFPESLESAG [r14_373_JUSTAS] | 3.865 ± 0.037 kcal/mol

Sequence | folding stability dG unfold
SAGGKYKIEIEITEIKEKEDGTKEITIKIKIYDEETGELIYTITVKMRIDKKTNKIIIEEVKIEKLPPSAGG [r13_596_TrROS_Hall] | 6 ± 0.36 kcal/mol
SAGGSAGGSAGGKIKPGQTVIFIELKITKQRDGPDGKRYMEFEIERIDIFRIPPGDNILSAGGSAGGSAGGS [r10_826_TrROS] | 3.18 ± 0.13 kcal/mol
SAGGSTTVTIETYESEKFPNGSFKTSTKKIVITNTLSPDEELTLPNGKKIPASLSAEEIAEAILKSESAGGS [r16_440_JUSTAS] | 0.522 ± 0.11 kcal/mol
SMEEIAKEIAEKAGVNWENVEFKVEEKEDPETGEKYLIAHVVIKLPNEKYIAVIDLRDKKILEIWKLEDISA [r9_1219_TrMRF] | 3.73 ± 0.063 kcal/mol
SAGDDLKIKKVEIQINPEHGYISVTFRIDGYEVQIMYDVDPKNGPITMDIYYPGKPIGEFTIPLNDIKISAG [r5_415_TrROS] | 3.01 ± 0.05 kcal/mol
SAGGSAGGSAGGPLKEAVEAAVASGAPEAEYLLVTPEGELRVTVKVYPEEGKVEVEVSPLSAGGSAGGSAGG [r17_475_TrMRF] | 0.0794 ± 0.063 kcal/mol
SAGGSAGGSAMKTIPVKTKEEAEKLAEELKASGYGEVKKTKSGNIIVKAPDGIDVKIVVPEKSAGGSAGGSA [r18_126_JUSTAS] | 0.712 ± 0.072 kcal/mol
SAPLEQLLEFAEEFAQAYGYRVEIEVYRNGEPKGTYEIPMPKPGQPPVSIMIRIPDPNLYIHVTIYMPRSAG [r14_728_TrROS] | 3.07 ± 0.041 kcal/mol
SASPELRKLAEEAAERLVKELGVEKLEFTFTAPVLRPVYTYDPGGNKTPRLEEEIVTYSVTAVVPPEAASAG [r14_232_TrMRF] | -0.21 ± 0.31 kcal/mol
TWTFTIMIPIKPEIREALDSGKPLPIEELVDWIKDEIARMFGFKDVTVKGIEIHPDPNGEIMVMVTIEFKPS [r1_290_TrROS] | 4.64 ± 0.12 kcal/mol
SAGGSAGGWIEIDPETGTIEIWMPPNDIEPLVDEIAEELGWKVKVKVEPNPEGWVRHTITIPPKSAGGSAGG [r6_419_TrROS] | 0.281 ± 0.35 kcal/mol
SAGGIVVGEEGVVRITGPGEPVIIPLPENSEVVEIDVPDDGYVRITLRVDGKTVTVDFPSAPPGLTLSAGGS [r16_635_TrMRF] | 0.355 ± 0.041 kcal/mol
SAGGSMTTITLTLEFELDENGEVDPEKIEAEAEKIKEENPEIKELTVEVKRDPNSNKITVTVTAKVPSAGGS [r8_258_JUSTAS] | 3.29 ± 0.19 kcal/mol
SAPQIVEVKEYDPVSKTYTILAETPEGPLTVPVPAGGDTTVEEAIEQVKEYFEKTLPPGVELEIEKILLSAG [r14_422_JUSTAS] | 0.271 ± 0.14 kcal/mol
SAGGSAGGSAMEIEIEIEIPVPVPGGVPSPENPEVAEERAEEIKEKYAKEGLKVKVKITVVSAGGSAGGSAG [r3_258_JUSTAS] | 1.13 ± 0.061 kcal/mol
SAGKIKIEVEYLDPNGDWRRYEHTIPFKPNQSFEEAINELLPPGLREIKITEVDPEEGTIKIDIWIRPDSAG [r5_227_TrROS] | 2.5 ± 0.061 kcal/mol
SAGGSAGGSAGGWYRIEIEFGNKPREYVVPGAPPDEAADMLQDPGIKNVKVEPLPPEQLKSAGGSAGGSAGG [r7_502_TrROS] | 0.537 ± 0.16 kcal/mol
SAGGSASSYGIEIEFSEDPNSKTKKITITVTRPDGTVETVTITNPDITDEEAKKIGEELANEVANSSAGGSA [r15_526_JUSTAS] | 1.93 ± 0.02 kcal/mol
SAGFEARVLEVVDLGDRRVALFELRDPEEGRYLLAVAVYDPETGLARVELWDPTDGRLVATPVVPVLPLSAG [r5_440_TrMRF] | 2.36 ± 0.047 kcal/mol
SAKKIKIKEITITVEKNKDGSYTITITVDGKKIAELTFKTPEEAEKAAEELAKELAKKLNVDKIEIKPTSAG [r14_791_TrROS_Hall] | 2.69 ± 0.25 kcal/mol
SAGGSPIIRVKVTYYPPDGSVTVYLPADSVDELIDALNSVPDIPVTPTDGDTIIASTPDAIVEITVESSAGG [r13_143_TrMRF] | 0.849 ± 0.032 kcal/mol
